Data: patent US20210381002A1 (CORNELL UNIVERSITY, published 2021)

Legend:
[1] = biological target: the molecule itself; assay: Bis-Tris gel of 293T supernatant (self-association, tetramer formation)
Method: FIG. 14. Assessment of supernatants of catalase constructs for monomeric and multimeric catalase separation. Samples were assessed on Bis-Tris gel, blotted and probed with anti-catalase antibody (ABCAM: ab88067); predicted band sizes, 60 kDa for monomer and 240 kDa for tetramer, aAll 3 constructs secreted only the monomeric construct.
Three modifications of the human catalase sequence were assessed: hCatNT⁻, hCatWL⁻ and hCatNT⁻WL⁻. […] However, of the 3 constructs, only the wrapping loop domain deletion (hCatWD⁻) retained catalase activity (FIG. 5B). […] Intravenous administration to mice led to detection of hCatWD⁻ DNA in the liver and lung (typical for AAVrh.10 vectors) (Chiuchiolo et al., 2013), and importantly, easily detectable human catalase activity in serum, e.g., LEX 5a generates a secreted, functional catalase monomer (FIG. 7A-C).

[2] = biological target: the molecule itself; assay: Sephacryl size exclusion column fractions, anti-HA Western (self-association, tetramer formation)
Method: FIGS. 6A-B. Modified SOD3 construct. A) Secretion of the modified SOD3 constructs. Western (anti-HA tag) of supernatant of 293T cells transfected with: lane 1—mock; lane 2—unmodified HA tagged SOD3; lane 3—SOD3hd⁻. Only SOD3hd⁻ is in the supernatant. […] Approximate MW are calculated from column specifications.
Two modifications were made in a single SOD3 variant (hSOD3hd⁻), including a deletion of residues 50-59 replaced with an in frame copy of the residue segment from 74-80, and a deletion of residues 212-240, the heparin-binding domain. […] Intravenous administration to Balb/c mice led to vector DNA in liver and lung (liver 50-fold higher) and SOD activity in serum (FIG. 7D-F). LEX 5c, LEX 5d. Based on the in vitro and in vivo functional data of LEX 5a and LEX 5b, LEX 5c and LEX 5d were generated to express both catalase and SOD3 modified monomers. Based on expressing 2 genes in 1 AAV construct (De et al., 2008; Wang et al., 2010; Watanabe et al., 2010; Mao et al., 2011; Rosenberg et al., 2012; Hicks et al., 2012; Xie et al., 2014; Hicks et al., 2015; Pagovich et al., 2016; Liu et al., 2016), both […] use a single promoter, with the 2 modified cDNA separated by a furin 2A cleavage site which directs cleavage of the resulting precursor protein to generate the 2 function proteins. […]

Protein	binding result [1]	binding result [2]
human catalase monomer with a 20 amino acid deletion from the wrapping loop domain (hCatWL^-) (enzyme, also called hCatWD^-) ADSRDPASDQMQHWKEQRAAQKADVLTTGAGNPVGDKLNVITVGPRGPLLVQDVVFTDEMAHFDRERIPERVVHAKGAGAFGYFEVTHDITKYSKAKVFEHIGKKTPIAVRFSTVAGESGSADTVRDPRGFAVKFYTEDGNWDLVGNNTPIFFIRDPILFPSFIHSQKRNPQTHLKDPDMVWDFWSLRPESLHQVSFLFSDRGIPDGHRHMNGYGSHTFKLVNANGEAVYCKFHYKTDQGIKNLSVEDAARLSQEDPDYGIRDLFNAIATGKYPSWTFYIQVMTFNQAETFPFNPFDLTKVWPHKDYPLIPVGKLVLNRNPVNYFAEVEQIAFDPSNMPPGIEASPDKMLQGRLFAYPDTHRHRLGPNYLHIPVNCPYRAPNYYPNSFGAPEQQPSALEHSIQYSGEVRRFNTANDDNVTQVRAFYVNVLNEEQRKRLCENIAGHLKDAQIFIQKKAVKNFTEVHPDYGSHIQALLDKYNAEKPKNAIHTFVQSGSHLAAREKANLYPYDVPDYA	no binding	–
modified human superoxide dismutase 3 (hSOD3hd^-): residues 50-59 replaced with a copy of 74-80, and heparin-binding domain residues 212-240 deleted (enzyme, also called expression product of LEX 5b; not shown: Hemagglutinin (HA) tag used for detection with anti-HA) WTGEDSAEPNSDSAEWIRDMYAKVTEIWQEVATLDAAQHAACQVQPSATLDAAQPRVTGVVLFRQLAPRAKLDAFFALEGFPTEPNSSSRAIHVHQFGDLSQGCESTGPHYNPLAVPHPQHPGDFGNFAVRDGSLWRYRAGLAASLAGPHSIVGRAVVVHAGEDDLGRGGNQASVENGNAGRRLACCVVG	–	no binding
